Data: patent US20190359693A1

Experiments:
Experiment in all cases: cell-based or functional assay
[1] = target: hemagglutinin (HA) of influenza A/New Caledonia/20/99 (H1N1) (influenza A virus A/New Caledonia/20/99 (H1N1))
[2] = target: hemagglutinin (HA) of influenza A/Vietnam/1194/04 (H5N1) (influenza A virus A/Vietnam/1194/04 (H5N1))
[3] = target: hemagglutinin (HA) of influenza A/Brisbane/10/07 (H3N2) (influenza A virus A/Brisbane/10/07 (H3N2))
[4] = target: hemagglutinin (HA) of influenza A/New York/107/03 (PR8) (influenza A virus A/New York/107/03 (PR8))

B1: SD3014 (VHH)
VHH: EVQLVESGGGVVQPGGSLRLSCAASISIFDIYAMDWYRQAPGKQRELVAVSFRDGSTYYADSVKGRFTISRDNSKNTLYLQMNSLRAEDTAVYLCHVSLYRDPLGVAGGMGVYWGKGALVTVSS
With B1 the VNA IC50 [1] was 3 nM and the VNA IC50 [2] was 11 nM.

B2: SD3033 (VHH)
VHH: EVQLVESGGGLVQPGGSLRLSCAVSISIFDIYAMDWYRQAPGKQRDLVATSFRDGSTNYADSVKGRFTISRDNAKNTLYLQMNSLKPEDTAVYLCHVSLYRDPLGVAGGFGVYWGKGALVTVSS
For B2, the VNA IC50 [1] was 51 nM and the VNA IC50 [2] was 316 nM.

B3: SD3017 (VHH)
VHH: EVQLVESGGGVVQPGGSLRLSCAASISIFDIYAMHWYRQAPGKQRELVATSFRDGSTYYADSVKGRFTISRDNSKNTLYLQMNSLRAEDTAVYLCHVSLYRDPLGVAGGMGVYWGKGALVTVSS
With B3 the VNA IC50 [1] was 4 nM and the VNA IC50 [2] was 11 nM.

B4: SD3015 (VHH)
VHH: EVQLVESGGGVVQPGGSLRLSCAASISIFDIYAMDWYRQAPGKQRELVSVSFRDGSTYYADSVKGRFTISRDNSKNTLYLQMNSLRAEDTAVYLCHVSLYRDPLGVAGGMGVYWGKGALVTVSS
With B4 the VNA IC50 [1] was 3 nM and the VNA IC50 [2] was 6 nM.

B5: SD3016 (VHH)
VHH: EVQLVESGGGVVQPGGSLRLSCAASISIFDIYAMDWYRQAPGKQRELVAVSFRDGSTYYADSVKGRFTISRDNSKNTLYLQMNSLRPEDTAVYLCHVSLYRDPLGVAGGMGVYWGKGALVTVSS
With B5 the VNA IC50 [1] was 3 nM and the VNA IC50 [2] was 8 nM.

B6: SD3019 (VHH)
VHH: EVQLVESGGGVVQPGGSLRLSCAASISIFDIYAMHWYRQAPGKQRELVSVSFRDGSTYYADSVKGRFTISRDNSKNTLYLQMNSLRAEDTAVYLCHVSLYRDPLGVAGGMGVYWGKGALVTVSS
B6 showed a VNA IC50 [1] of 4 nM and a VNA IC50 [2] of 8 nM.

B7: SD3020 (VHH)
VHH: EVQLVESGGGVVQPGGSLRLSCAASISIFDIYAMHWYRQAPGKQRELVAVSFRDGSTYYADSVKGRFTISRDNSKNTLYLQMNSLRPEDTAVYLCHVSLYRDPLGVAGGMGVYWGKGALVTVSS
Binder B7 has a VNA IC50 [1] of 4 nM and a VNA IC50 [2] of 15 nM.

B8: SD3089 (VHH)
VHH: EVQLVESGGGVVQPGGSLRLSCAASISIFDIYAMHWYRQAPGKQRELVSVSFRDGSTYYADSVKGRFTISRDNSKNTLYLQMNSLRAEDTAVYYCHVSLYRDPLGVAGGLGVYWGQGTLVTVSS
For B8, the VNA IC50 [3] was 1190 nM, the VNA IC50 [1] was 3 nM and the VNA IC50 [2] was 20 nM.

B9: SD3031 (VHH)
VHH: EVQLVESGGGLVQPGGSLRLSCAVSISIFDIYAMDWYRQAPGKQRDLVATSFRDGSTNYADSVKGRFTISRDNAKNTLYLQMNSLKPEDTAVYLCHVSLYRDPLGVAGGVGVYWGKGALVTVSS
Binder B9 has a VNA IC50 [3] greater than 1000 nM, a VNA IC50 [1] of 37 nM and a VNA IC50 [2] of 51 nM.

B10: SD3080 (VHH)
VHH: EVQLVESGGGVVQPGGSLRLSCAASISIFDIYAMDWYRQAPGKQRELVAVSFRDGSTYYADSVKGRFTISRDNSKNTLYLQMNSLRPEDTAVYYCHVSLYRDPLGVAGGLGVYWGQGTLVTVSS
In the case of B10, the VNA IC50 [3] is reported as 632 nM, the VNA IC50 [1] is reported as 5 nM and the VNA IC50 [2] is reported as 16 nM.

B11: SD3078 (VHH)
VHH: EVQLVESGGGVVQPGGSLRLSCAASISIFDIYAMDWYRQAPGKQRELVSVSFRDGSTYYADSVKGRFTISRDNSKNTLYLQMNSLRAEDTAVYYCHVSLYRDPLGVAGGLGVYWGQGTLVTVSS
In the case of B11, the VNA IC50 [3] is reported as 632 nM, the VNA IC50 [1] is reported as 8 nM and the VNA IC50 [2] is reported as 20 nM.

B12: SD3032 (VHH)
VHH: EVQLVESGGGLVQPGGSLRLSCAVSISIFDIYAMDWYRQAPGKQRDLVATSFRDGSTNYADSVKGRFTISRDNAKNTLYLQMNSLKPEDTAVYLCHVSLYRDPLGVAGGAGVYWGKGALVTVSS
B12 was tested, and the VNA IC50 [1] was greater than 500 nM and the VNA IC50 [2] was greater than 500 nM.

B13: SD3018 (VHH)
VHH: EVQLVESGGGVVQPGGSLRLSCAASISIFDIYAMHWYRQAPGKQRELVAVSFRDGSTYYADSVKGRFTISRDNSKNTLYLQMNSLRAEDTAVYLCHVSLYRDPLGVAGGMGVYWGKGALVTVSS
B13 was tested, and the VNA IC50 [1] was 6 nM and the VNA IC50 [2] was 8 nM.

B14: SD3023 (VHH)
VHH: EVQLLESGGGLVQAGGSLRLSCAASGRTYAMSWFRQAPGKEREFVSHINALGTRTYYADSVKGRFTISRDNSKNTLYLQMNSLRPEDTAVYYCTAQGQWRAAPVAVAAEYEFWGQGTQVTVSS
Binder B14 has a VNA IC50 [3] of 64 nM and a VNA IC50 [4] of 16 nM.

B15: SD3096 (VHH)
VHH: EVQLLESGGGLVQPGGSLRLSCAASGRTYAMGWFRQAPGKEREFVAHINALGTRTYYADSVKGRFTISRDNSKNTVYLQMNSLRPEDTAVYYCTAQGQWRAAPVAVAAEYEFWGQGTLVTVSS
Work on B15 yielded a VNA IC50 [3] of 26 nM and a VNA IC50 [4] of 5 nM.

B16: SD3027 (VHH)
VHH: EVQLLESGGGLVQAGGSLRLSCAASGRTYAMSWFRQAPGKEREFVSAINALGTRTYYADSVKGRFTISRDNSKNTLYLQMNSLRPEDTAVYYCTAQGQWRAAPVAVAAEYEFWGQGTQVTVSS
Binder B16 has a VNA IC50 [3] of 16 nM and a VNA IC50 [4] of 6 nM.

B17: SD3024 (VHH)
VHH: EVQLLESGGGLVQPGGSLRLSCAASGRTYAMSWFRQAPGKEREFVSHINALGTRTYYADSVKGRFTISRDNSKNTLYLQMNSLRAEDTAVYYCTAQGQWRAAPVAVAAEYEFWGQGTQVTVSS
With B17 the VNA IC50 [3] was 80 nM and the VNA IC50 [4] was 20 nM.

B18: SD3095 (VHH)
VHH: EVQLLESGGGLVQPGGSLRLSCAASGRTYAMGWFRQAPGKEREFVAHINALGTRTYYADSVKGRFTISRDNSKNTLYLQMNSLRPEDTAVYYCTAQGQWRAAPVAVAAEYEFWGQGTLVTVSS
B18 showed a VNA IC50 [3] of 8 nM and a VNA IC50 [4] of 6 nM.

B19: SD3026 (VHH)
VHH: EVQLLESGGGLVQPGGSLRLSCAASGRTYAMSWFRQAPGKEREFVSAINALGTRTYYADSVKGRFTISRDNSKNTLYLQMNSLRAEDTAVYYCTAQGQWRAAPVAVAAEYEFWGQGTQVTVSS
With B19 the VNA IC50 [3] was 16 nM and the VNA IC50 [4] was 8 nM.

B20: SD3094 (VHH)
VHH: EVQLLESGGGLVQPGGSLRLSCAASGRTYAMGWFRQAPGKEREFVAHINALGTRTYYADSVKGRFTISRDNSKNTLYLQMNSLRAEDTAVYYCTAQGQWRAAPVAVAAEYEFWGQGTLVTVSS
In the case of B20, the VNA IC50 [3] is reported as 8 nM and the VNA IC50 [4] is reported as 6 nM.

B21: SD3028 (VHH)
VHH: EVQLLESGGGLVQAGGSLRLSCAASGRTYAMSWFRQAPGKEREFVAHINALGTRTYYADSVKGRFTISRDNSKNTLYLQMNSLRPEDTAVYYCTAQGQWRAAPVAVAAEYEFWGQGTQVTVSS
B21 showed a VNA IC50 [3] of 101 nM and a VNA IC50 [4] of 26 nM.

B22: SD3025 (VHH)
VHH: EVQLLESGGGLVQPGGSLRLSCAASGRTYAMSWFRQAPGKEREFVAHINALGTRTYYADSVKGRFTISRDNSKNTLYLQMNSLRAEDTAVYYCTAQGQWRAAPVAVAAEYEFWGQGTQVTVSS
B22 gave a VNA IC50 [3] of 160 nM and a VNA IC50 [4] of 13 nM.

B23: SD3098 (VHH)
VHH: EVQLLESGGGLVQPGGSLRLSCAASGRTYAMGWFRQAPGKEREFVAAINALGTRTYYADSVKGRFTISRDNSKNTLYLQMNSLRPEDTAVYYCTAQGQWRAAPVAVAAEYEFWGQGTLVTVSS
Work on B23 yielded a VNA IC50 [3] of 4 nM and a VNA IC50 [4] of 16 nM.

B24: SD3044 (VHH)
VHH: EVQLVESGGGLVQPGGSLRLSCAASGRTLSIYSMSWFRQAPGKEREFVSTIGWNSGRTYYADSVKGRFTISRDNARNTLYLQMNSLRAEDTAVYYCAAAKGPLRLSSQADYWGQGTQVTVSS
Binder B24 has a VNA IC50 [4] greater than 1000 nM.

B25: SD3046 (VHH)
VHH: EVQLVESGGGLVQAGGSLRLSCAASGRTLSIYSMSWFRQAPGKEREFVSTIGWNSGRTYYADSVKGRFTISRDNSKNTLYLQMNSLRAEDTAVYYCAAAKGPLRLSSQADYWGQGTQVTVSS
B25 showed a VNA IC50 [4] greater than 1000 nM.

B26: SD3045 (VHH)
VHH: EVQLVESGGGLVQAGGSLRLSCAASGRTLSIYSMSWFRQAPGKEREFVSAIGWNSGRTYYADSVKGRFTISRDNSKNTLYLQMNSLRAEDTAVYYCAAAKGPLRLSSQADYWGQGTQVTVSS
In the case of B26, the VNA IC50 [4] is reported as greater than 1000 nM.

B27: SD3047 (VHH)
VHH: EVQLVESGGGLVQAGGSLRLSCAASGRTLSIYSMSWFRQAPGKEREFVATIGWNSGRTYYADSVKGRFTISRDNSKNTLYLQMNSLRAEDTAVYYCAAAKGPLRLSSQADYWGQGTQVTVSS
B27 was tested, and the VNA IC50 [4] was greater than 1000 nM.

B28: SD3048 (VHH)
VHH: EVQLVESGGGLVQAGGSLRLSCAASGRTLSIYSMSWFRQAPGKEREFVSTIGWNSGRTYYADSVKGRFTISRDNARNTLYLQMNSLRAEDTAVYYCAAAKGPLRLSSQADYWGQGTQVTVSS
With B28 the VNA IC50 [4] was 858 nM.

B29: SD3068 (VHH)
VHH: EVQLVESGGGLVQPGGSLRLSCAASGRTLSIYSMGWFRQAPGKEREFVSTIGWNSGRTFYPDSLKGRFTISRDNSKNTLYLQMNSLRAEDTAVYYCAAAKGPLRLSSQADYWGQGTLVTVSS
In the case of B29, the VNA IC50 [3] is reported as 4 nM and the VNA IC50 [4] is reported as 26 nM.

B30: SD3067 (VHH)
VHH: EVQLVESGGGLVQPGGSLRLSCAASGRTLSIYSMGWFRQAPGKEREFVATIGWNSGRTFYPDSLKGRFTISRDNSKNTLYLQMNSLRAEDTAVYYCAAAKGPLRLSSQADYWGQGTLVTVSS
B30 was tested, and the VNA IC50 [3] was 3 nM and the VNA IC50 [4] was 16 nM.
